According to publication PMC4241043:

Tests used:
[1] = biological target: protein FAF on the surface of F. magna strain ALB8 (F. magna (endogenous in strain ALB8)); assay: radioligand binding
[2] = biological target: protein FAF (F. magna adhesion factor), recombinant, amino acids 28-616 (F. magna); assay: SPR
[3] = biological target: FAF-expressing strains (ALB8, L3410, 1462 and 2133); assay: radioligand binding

Chain of galectin-7 (P47929 whole entry, the tested form may be a part): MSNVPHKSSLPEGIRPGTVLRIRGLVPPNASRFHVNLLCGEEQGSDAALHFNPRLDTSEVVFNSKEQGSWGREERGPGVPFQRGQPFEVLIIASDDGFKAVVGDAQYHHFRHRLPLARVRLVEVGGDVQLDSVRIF

Row | Substance | percent binding of 125I-labelled fragment [1] [%] | Kd [2] [nM] | percent of added radiolabelled galectin-7 bound [3] [%]
1 | rFBN2-2, N-terminal half of fibrillin-2 (domain or fragment) | 17 | – | –
2 | rF16, N-terminal half of fibrillin-1 (domain or fragment) | 24 | – | –
3 | galectin-7 (from UniProt P47929 1-136) (natural protein) | – | 0.53 | 20 to 30
